Source: article PMC5469797 (2017)

What was measured:
[1] = molecular target: T1, full-length murine urokinase-type plasminogen activator (muPA) (murine, UniProt P06869 21-433); test: SPR
[2] = molecular target: T2, catalytic serine protease domain of murine urokinase-type plasminogen activator (muPA), Gly2-Gly244, C122A (murine); test: SPR
[3] = molecular target: T1, full-length murine urokinase-type …; test: SPR; remark: listed apart in the source
[4] = molecular target: T2, catalytic serine protease domain of …; test: SPR; remark: listed apart in the source
[5] = molecular target: T3, catalytic domain of muPA (Gly2-Gly244, C122A) inhibited at the active site with Glu-Gly-Arg-chloromethylketone (murine, irreversible active site binding ligand Glu-Gly-Arg-chloromethylketone (EGR-cmk) in the active site); test: SPR; EGR-cmk inhibited
T3 sequence (chain, as listed by the source C122A): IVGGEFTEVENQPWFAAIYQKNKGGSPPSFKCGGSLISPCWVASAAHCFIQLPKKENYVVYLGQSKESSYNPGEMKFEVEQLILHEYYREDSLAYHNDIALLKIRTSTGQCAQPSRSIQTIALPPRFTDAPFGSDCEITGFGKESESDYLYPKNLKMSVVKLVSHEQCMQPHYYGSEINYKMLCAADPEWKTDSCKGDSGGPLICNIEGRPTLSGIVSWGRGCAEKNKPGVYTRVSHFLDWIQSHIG

[6] = molecular target: T4, full-length muPA inhibited at the active site with Glu-Gly-Arg-chloromethylketone (murine, UniProt P06869 21-433, irreversible active site binding ligand Glu-Gly-Arg-chloromethylketone (EGR-cmk) in the active site); test: SPR; EGR-cmk inhibited
T4 sequence (P06869 21-433): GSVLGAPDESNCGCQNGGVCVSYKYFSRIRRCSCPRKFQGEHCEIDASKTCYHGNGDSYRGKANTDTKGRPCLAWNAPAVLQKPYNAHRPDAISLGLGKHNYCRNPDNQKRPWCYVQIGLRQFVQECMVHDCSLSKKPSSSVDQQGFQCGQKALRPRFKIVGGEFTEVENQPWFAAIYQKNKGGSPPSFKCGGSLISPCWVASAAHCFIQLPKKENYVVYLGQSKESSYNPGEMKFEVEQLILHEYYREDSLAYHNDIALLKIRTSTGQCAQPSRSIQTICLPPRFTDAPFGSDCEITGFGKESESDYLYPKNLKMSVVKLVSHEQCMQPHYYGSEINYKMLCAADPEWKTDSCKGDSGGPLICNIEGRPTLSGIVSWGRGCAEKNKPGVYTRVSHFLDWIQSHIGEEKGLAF

[7] = molecular target: T3, catalytic domain of muPA (Gly2-Gly244, …); test: SPR; EGR-cmk inhibited; remark: listed apart in the source
[8] = molecular target: T4, full-length muPA inhibited at the …; test: SPR; EGR-cmk inhibited; remark: listed apart in the source

T1 sequence (P06869 21-433): as above
T2 sequence (chain, as listed by the source C122A): as the sequence (chain, as listed by the source C122A) above

B1: anti-muPA allosteric nanobody Nb7 (VHH)
VHH: QVQLQESGGGLVQPGGSLRLSCAASGFTLGYYAIGWFRRAPGKEREGVSCISSSGGSTNYADSVKGRFTISRDNAKNTVDLQMNSLKPEDTAIYYCAAEWVPPGYGATVQALCNNAGYGMEYWGKGTQVTVSS
koff [1]: 0.00054 s⁻¹
koff [2]: 0.0011 s⁻¹
Kd [3]: 7.5 nM
Kd [4]: 11.2 nM
koff [5]: 0.00101 s⁻¹
koff [6]: 0.00084 s⁻¹
Kd [7]: 16.7 nM
Kd [8]: 19.3 nM
